Columns and labels:
3T3-TrkA cells = assay: NIH-3T3 cell survival (ViaLight); assay type: cell-based, mouse; conditions: serum-free medium, 72-96 h, PTX-BD4-3 1000 nM
Description: (§1) Fig. 2. PTX-BD4-3 promotes cell survival preferentially through TrkB. (A-D) Neurotrophin receptor-expressing NIH-3T3 cells were incubated in culture medium (CM) alone or in medium plus either the indicated neurotrophins (BDNF, NGF, NT-3) or PTX-BD4-3 or its parent compound LM22A-4 for 72-96 h, after which survival was measured using the ViaLight assay. […] Scale bar: 10 μm. (B) Survival dose-response curves for PTX-BD4-3 and LM22A-4 in 3T3-TrkB cells. ^§P≤0.001 compared to CM alone. (C) Representative images of 3T3-TrkA, 3T3-TrkC and 3T3-p75 cells grown in the presence of CM alone, CM+neurotrophin or CM+PTX-BD4-3. Scale bar: 10 μm. NGF, NT-3 and BDNF served as positive controls for 3T3-TrkA, 3T3-TrkC and 3T3-p75 cells, respectively. (D) PTX-BD4-3 (1000 nM) had no effect on survival of 3T3-TrkA, 3T3-TrkC or 3T3-p75 cells compared to medium alone. *P≤0.05, ***P≤0.001 compared to CM alone. For each determination in B and D, n=10-32 wells derived from four to five independent experiments. Statistical significance was determined by one-way ANOVA with Dunnett's post hoc multiple comparison test. (E,F) […] protein was extracted from human cementoblast-like cell (HCEM) cultures treated with either culture medium alone, BDNF, LM22A-4 or PTX-BD4-3, immunoprecipitated with anti-TrkB antibody and then probed sequentially on western blots with anti-Shc and anti-TrkB antibody. The ratio of Shc to TrkB in treated cultures was normalized and compared to control (CM alone) using Kruskal-Wallis ANOVA followed by Dunn's multiple comparisons test (*P≤0.05, ^§P≤0.001). n=13 independent experiments, and each protein sample was run on duplicate western blots and the normalized values averaged. RLUs, relative light units.
(§2) Mouse NIH-3T3 cells expressing TrkA (NIH-3T3-TrkA) were provided by Dr William Mobley (University of California at San Diego, San Diego, CA, USA), and NIH-3T3 cells expressing TrkB (NIH-3T3-TrkB) or TrkC (NIH-3T3-TrkC) were provided by Dr David Kaplan (University of Toronto, Toronto, ON, Canada). Cells were propagated in Dulbecco's modified Eagle medium (DMEM) supplemented with 10% fetal bovine serum (FBS; Invitrogen) and 200-400 µg/ml Geneticin. Cells were seeded into 24-well plates (30,000 cells/well) and cultured in medium consisting of 50% PBS and 50% DMEM without supplements. Following exposure to BDNF (20 ng/ml, 0.7 nM) or 10-1000 nM LM22A-4 or PTX-BD4-3 for 72-96 h, cells were suspended in 50 µl lysis buffer, transferred to white, opaque 96-well culture plates and survival was measured using the ViaLight Assay (Lonza Group, Rockland, ME, USA).

3T3-TrkC cells = assay: NIH-3T3 cell survival (ViaLight); assay type: cell-based, mouse; conditions: serum-free medium, 72-96 h, PTX-BD4-3 1000 nM
Description: as §1, §2

3T3-TrkB cells = assay: NIH-3T3 cell survival (ViaLight); assay type: cell-based, mouse; conditions: serum-free medium, 72-96 h, ViaLight; compounds 10-1000 nM dose-response, BDNF 20 ng/ml
Description: as §1, §2

3T3-p75 cells = assay: NIH-3T3 cell survival (ViaLight); assay type: cell-based, mouse; conditions: serum-free medium, 72-96 h, PTX-BD4-3 1000 nM
Description: as §1, §2

[1] = system: 3T3 parent line, which does not express Trk receptors; assay: NIH-3T3 cell survival; assay type: cell-based, mouse; conditions: serum-free medium
TrkB = assay: Shc adaptor protein recruitment to TrkB in HCEMs (IP/western blot); assay type: cell-based, human; conditions: 1 h, compounds 1000 nM, BDNF 0.7 nM
Description: Fig. 2. […] Scale bar: 10 μm. […] Scale bar: 10 μm.

[2] = system: E16 mouse hippocampal neurons; assay: Hippocampal neuron survival (ViaLight assay and Tuj1-positive cell counts); assay type: cell-based; conditions: compounds 1000 nM, BDNF 20 ng/ml; vs control antibody
Description: To further confirm that PTX-BD4-3 promotes biologically relevant activity through TrkB, we examined the effect of PTX-BD4-3 on survival of cultured hippocampal neurons, using two different methods (Fig. 3A-C). […] It would be expected that although there is a correlation between survival status and mitochondrial metabolic status, one could have some degree of variability in metabolic function for a given level of cell survival. […] Because the plateau effect of PTX-BD4-3 on survival was observed between 500 nM and 1000 nM, we chose 1000 nM as a standard concentration for subsequent mechanistic studies.
Fig. 3. […] (A) Fluorescence photomicrographs (original magnification, ×40) of Tuj1-immunostained E16 mouse hippocampal neuronal cultures treated with culture medium (CM) alone, BDNF, LM22A-4 or PTX-BD4-3 for 48 h. Scale bar: 10 μm. (B) Neuron survival dose-response curves for LM22A-4 and PTX-BD4-3 were generated using the ViaLight assay; data were normalized to survival achieved with 20 ng/ml (∼0.7 nM) BDNF and compared with wells receiving culture medium medium (CM) alone. n=10-32 wells per group derived from four to five independent experiments. (C) Survival analysis of hippocampal neurons treated with either 20 ng/ml BDNF, 500 nM or 1000 nM LM22A-4 or 500 nM or 1000 nM PTX-BD4-3 for 48 h. Tuj1-positive cells counts were normalized to the survival achieved with BDNF and compared with wells treated with […]. n=32-40 wells per group derived from six independent experiments. Statistical significance in B and C was determined by one-way ANOVA with Dunnett's post hoc multiple comparison tests. *P≤0.05, ^§P≤0.001 compared to control (CM). (D) Survival of hippocampal neurons treated with CM, 20ng/ml BDNF (B), 1000 nM LM22A-4 or 1000 nM PTX-BD4-3 with or without anti-TrkB antibody (Bab) or non-immune serum (non). n=37-42 wells per group derived from five independent experiments. *P≤0.05, **P≤0.01, ***P≤0.001 (non vs Bab), Mann-Whitney test; *P≤0.05, ^ψP≤0.01, ^§P≤0.001 (compared to CM), one-way ANOVA with Dunnett's post hoc multiple comparison test.
Hippocampal neuron cultures were prepared from E16 CF1 mouse fetuses as described previously ([Yang et al., 2006]). Under the low-density conditions used here, neuronal survival is dependent, in part, on addition of exogenous neurotrophins ([Yang et al., 2008]; [Walter et al., 2011]). LM22A-4 and PTX-BD4-3 were dissolved in water at a stock concentration of 10 mM prior to dilution (1:10,000) in culture medium. Cell survival following a 48-h exposure to BDNF, LM22A-4 or PTX-BD4-3 was quantified by either counting β-tubulin III-positive cell bodies ([Massa et al., 2006]; [Walter et al., 2011]) or by the ViaLight Assay described above.

“NGF: neurotrophin, cognate ligand and positive control for 3T3-TrkA cells” was tested, and the “survival of 3T3-TrkA cells” value (3T3-TrkA cells) was “supported survival”.

B1: NT-3: neurotrophin, cognate ligand and positive control for 3T3-TrkC cells (protein, UniProt P20783 139-257, looked up)
Neurotrophin-3: YAEHKSHRGEYSVCDSESLWVTDKSSAIDIRGHQVTVLGEIKTGNSPVKQYFYETRCKEARPVKNGCRGIDDKHWNSQCKTSQTYVRALTSENNKLVGWRWIRIDTSCVCALSRKIGRT
For B1, the “survival of 3T3-TrkC cells” value (3T3-TrkC cells) was “supported survival”.

B2: BDNF: Recombinant brain-derived neurotrophic factor, cognate ligand of TrkB; positive control (protein, UniProt P23560 19-247, looked up)
Neurotrophic factor BDNF …: APMKEANIRGQGGLAYPGVRTHGTLESVNGPKAGSRGLTSLADTFEHVIEELLDEDQKVRPNEENNKDADLYTSRVMLSSQVPLEPPLLFLLEEYKNYLDAANMSMRVRRHSDPARRGELSVCDSISEWVTAADKKTAVDMSGGTVTVLEKVPVSKGQLKQYFYETKCNPMGYTKEGCRGIDKRHWNSQCRTTQSYVRALTMDSKKRIGWRFIRIDTSCVCTLTIKRGR
B2 was tested, and the “survival of 3T3-TrkB cells” value (3T3-TrkB cells) was “supported survival”, the “survival of 3T3-p75 cells” value (3T3-p75 cells) was “respond” and the “survival of the 3T3 parent line” value [1] was “did not support survival”. The “Shc recruitment to TrkB (ratio of Shc to TrkB)” value (TrkB) was “promoted Shc recruitment to TrkB” and the “neurotrophic activity in the presence of function-blocking anti-TrkB^ECD antibody” value [2] was “reduction”.
